Results taken from article PMC8360832, “Butyryl/Caproyl-CoA:Acetate CoA-transferase: cloning, expression and characterization of the key enzyme involved in medium-chain fatty acid biosynthesis” (Bioscience Reports, 2021).

How the values were obtained:
[1] = system: T1, CCCC(=O)SCCNC(=O)CCNC(=O)[C@H](O)C(C)(C)COP(=O)(O)OP(=O)(O)OC[C@H]1O[C@@H](n2cnc3c(N)ncnc32)[C@H](O)[C@@H]1OP(=O)(O)O; test: purified protein; type: biochemical, Caproicibacterium lactatifermentans; settings: 200 mM sodium acetate, 100 mM potassium phosphate pH 7, 25 °C
T1 construct: full-length, N-terminal His tag, pET28a, E. coli BL21 (DE3), Ni-NTA; gene 1344 bp, 49 kDa; predicted active site GGQLDFVLGAYL 342-353; homotetramer in model only

[2] = system: T2, CCCCCC(=O)SCCNC(=O)CCNC(=O)[C@H](O)C(C)(C)COP(=O)(O)OP(=O)(O)OC[C@H]1O[C@@H](n2cnc3c(N)ncnc32)[C@H](O)[C@@H]1OP(=O)(O)O; test: purified protein; type: biochemical, Caproicibacterium lactatifermentans; settings: 200 mM sodium acetate, 100 mM potassium phosphate pH 7, 25 °C
T2 construct: full-length, N-terminal His tag, pET28a, E. coli BL21 (DE3), Ni-NTA; gene 1344 bp, 49 kDa; predicted active site GGQLDFVLGAYL 342-353; homotetramer in model only

Chain of CPB6-CoAT (CCoAT) (Caproicibacterium lactatifermentans; A351P) (chain, as listed by the source A351P): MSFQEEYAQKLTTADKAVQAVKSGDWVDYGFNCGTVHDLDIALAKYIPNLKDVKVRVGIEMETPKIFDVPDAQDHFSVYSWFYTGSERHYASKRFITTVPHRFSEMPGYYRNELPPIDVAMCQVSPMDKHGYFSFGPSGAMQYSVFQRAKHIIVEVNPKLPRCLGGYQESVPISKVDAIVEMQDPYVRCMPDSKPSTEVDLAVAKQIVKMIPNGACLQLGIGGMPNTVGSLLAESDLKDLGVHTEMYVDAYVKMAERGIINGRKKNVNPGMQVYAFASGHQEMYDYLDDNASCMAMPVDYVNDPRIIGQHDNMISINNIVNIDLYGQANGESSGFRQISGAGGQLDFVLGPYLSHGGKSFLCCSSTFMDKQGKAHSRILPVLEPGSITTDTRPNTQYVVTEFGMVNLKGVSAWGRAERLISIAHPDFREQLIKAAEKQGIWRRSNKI
Chain of CPB6-CoAT (CCoAT) (Caproicibacterium lactatifermentans) (chain, as listed by the source): as the sequence (chain, as listed by the source A351P) above, with P351A counted along it
Chain of CPB6-CoAT (CCoAT) (Caproicibacterium lactatifermentans; D346H) (chain, as listed by the source D346H): as the sequence (chain, as listed by the source A351P) above, with D346H, P351A counted along it

“CPB6-CoAT (CCoAT) (Caproicibacterium lactatifermentans)” gave a Km [1] of 537 ± 10 µM, a kcat [1] of 0.0968 ± 0.025 s⁻¹ and a kcat/Km [1] of 180 ± 3.33 M⁻¹ s⁻¹. For the same substance, the Km [2] was 359 ± 5.3 µM, the kcat [2] was 0.245 ± 0.015 s⁻¹ and the kcat/Km [2] was 685 ± 3.33 M⁻¹ s⁻¹.

“CPB6-CoAT (CCoAT) (Caproicibacterium lactatifermentans; A351P)” was tested, and the Km [1] was 623 ± 4.4 µM, the kcat [1] was 0.0498 ± 0.015 s⁻¹ and the kcat/Km [1] was 80 ± 3.33 M⁻¹ s⁻¹. The Km [2] was 532 ± 2.5 µM, the kcat [2] was 0.113 ± 0.02 s⁻¹ and the kcat/Km [2] was 213 ± 8.33 M⁻¹ s⁻¹.

Work on “CPB6-CoAT (CCoAT) (Caproicibacterium lactatifermentans; D346H)” yielded a Km [1] of 747 ± 2.8 µM, a kcat [1] of 0.0217 ± 0.00333 s⁻¹ and a kcat/Km [1] of 28.8 ± 1.67 M⁻¹ s⁻¹. The Km [2] was 748 ± 7.9 µM, the kcat [2] was 0.0707 ± 0.00333 s⁻¹ and the kcat/Km [2] was 94.3 ± 1.67 M⁻¹ s⁻¹.
